Reference: article PMC3745516

Target: CTEN (UniProt Q8IZW8)
Assay: anti-Flag co-IP, anti-HA blot
Conditions: reference: HA-c-Cbl wild type; sites Y774

- binding against the reference: lost
Substance: c-Cbl (from UniProt P22681) Y774F
